Measured values as given in patent US20060035245, “Modulators of enzymatic nucleic acid elements mobilization” (published 2006).

Target: Tn5 transposase hyperactive mutant (EK54, MA56, LP372) (UniProt Q46731 Q46731:1-476, E54K,M56A,L372P)
Test: EMSA; complex assembly, inhibited by small molecules with IC50 3.5-46 uM
Details: chain copies: 2; label: fluorescein 5' end of transferred strand
Procedure: For FP analysis, 60 μL reactions were analyzed using the FP protocol on a Wallac Victor V plate reader and a 7% native polyacrylamide gel was used in gel shift assays. For compound screening and subsequent analysis, 1 μL of either DMSO or test compound (final concentration 80 μM) was added to the synapsis reactions. Compound screening was carried out using a Beckman Coulter Biomek FX in a 384 well format. […] IC₅₀ values were obtained by fitting inhibitor titration data (0, 0.01, 0.05, 0.1, 0.5, 2.5, 10, 20, 35, 50, 100, 200, 400, 800 μM) to an exponential decay.

B1: 60 bp Tn5 substrate for inhibitor verification (dsDNA)
DNA 1: GGCCACGACACGCTCCCGCGCTGTCTCTTATACACATCTTGAGTGAGTGAGCATGCATGT
DNA 2: ACATGCATGCTCACTCACTCAAGATGTGTATAAGAGACAGCGCGGGAGCGTGTCGTGGCC
binding result: binds
